Data published in the supplement of paper PMC5998384.

Experiments:
HeLa Kyoto [1] = test: thermal stability score vs G1/S (z-score of summed log2 fold changes over temperatures); higher = more thermally stable than in G1/S
HeLa Kyoto [2] = test: solubility in G1/S (NP-40 vs SDS abundance) (log2 ratio); higher = more soluble; conditions: cell cycle stage: G1/S
HeLa Kyoto [3] = test: melting temperature (median over replicates), in situ; higher = more thermally stable
HeLa Kyoto [4] = test: solubility change mitosis vs G1/S (difference of NP-40 vs SDS log2 ratios) (log2 ratio difference); higher = more soluble in mitosis
[5] = cell cycle stage: early G1 (4.5 h after nocodazole release)
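For melting temperature (median over replicates), in situ in this document: HeLa Kyoto cells synchronized by double thymidine or nocodazole block, proteins quantified by TMT10plex mass spectrometry, three independent biological replicates.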
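For solubility change mitosis vs G1/S (difference of NP-40 vs SDS log2 ratios) in this document: synchronized HeLa Kyoto cells (double thymidine block for G1/S, nocodazole release for mitosis), protein amounts in NP-40 versus SDS lysates quantified by mass spectrometry, three biological replicates.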
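For solubility in G1/S (NP-40 vs SDS abundance) in this document: HeLa Kyoto cells arrested at G1/S by double thymidine block, proteins quantified by TMT10plex mass spectrometry in mild NP-40 versus SDS extracts, three biological replicates.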
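For thermal stability score vs G1/S (z-score of summed log2 fold changes over temperatures) in this document: synchronized HeLa Kyoto cells, proteins quantified by TMT10plex mass spectrometry, three biological replicates, mitosis taken 0.5 h after nocodazole release, G1/S directly after double thymidine block.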

| Sequence | thermal stability score (HeLa Kyoto [1]; [5]) | thermal stability score (HeLa Kyoto [1]; cell cycle stage: mitosis) | solubility in G1/S (log2) (HeLa Kyoto [2]) | melting temperature (HeLa Kyoto [3]; cell cycle stage: G1/S) [°C] | melting temperature (HeLa Kyoto [3]; cell cycle stage: mitosis) [°C] | solubility change mitosis (log2) (HeLa Kyoto [4]) |
| --- | --- | --- | --- | --- | --- | --- |
| MEQVEILRKFIQRVQAMKSPDHNGEDNFARDFMRLRRLSTKYRTEKIYPTATGEKEENVKKNRYKDILPFDHSRVKLTLKTPSQDSDYINANFIKGVYGPKAYVATQGPLANTVIDFWRMIWEYNVVIIVMACREFEMGRKKCERYWPLYGEDPITFAPFKISCEDEQARTDYFIRTLLLEFQNESRRLYQFHYVNWPDHDVPSSFDSILDMISLMRKYQEHEDVPICIHCSAGCGRTGAICAIDYTWNLLKAGKIPEEFNVFNLIQEMRTQRHSAVQTKEQYELVHRAIAQLFEKQLQLYEIHGAQKIADGVNEINTENMVSSIEPEKQDSPPPKPPRTRSCLVEGDAKEEILQPPEPHPVPPILTPSPPSAFPTVTTVWQDNDRYHPKPVLHMVSSEQHSADLNRNYSKSTELPGKNESTIEQIDKKLERNLSFEIKKVPLQEGPKSFDGNTLLNRGHAIKIKSASPCIADKISKPQELSSDLNVGDTSQNSCVDCSVTQSNKVSVTPPEESQNSDTPPRPDRLPLDEKGHVTWSFHGPENAIPIPDLSEGNSSDINYQTRKTVSLTPSPTTQVETPDLVDHDNTSPLFRTPLSFTNPLHSDDSDSDERNSDGAVTQNKTNISTASATVSAATSTESISTRKVLPMSIARHNIAGTTHSGAEKDVDVSEDSPPPLPERTPESFVLASEHNTPVRSEWSELQSQERSEQKKSEGLITSENEKCDHPAGGIHYEMCIECPPTFSDKREQISENPTEATDIGFGNRCGKPKGPRDPPSEWT [PTPN12] | -0.24 | 0.678 | 0.143 | 49.4 | 49.8 | -0.242 |
| MEQWRQCGRWLIDCKVLPPNHRVVWPSAVVFDLAQALRDGVLLCQLLHNLSPGSIDLKDINFRPQMSQFLCLKNIRTFLKVCHDKFGLRNSELFDPFDLFDVRDFGKVISAVSRLSLHSIAQNKGIRPFPSEETTENDDDVYRSLEELADEHDLGEDIYDCVPCEDGGDDIYEDIIKVEVQQPMIRYMQKMGMTEDDKRNCCLLEIQETEAKYYRTLEDIEKNYMSPLRLVLSPADMAAVFINLEDLIKVHHSFLRAIDVSVMVGGSTLAKVFLDFKERLLIYGEYCSHMEHAQNTLNQLLASREDFRQKVEECTLKVQDGKFKLQDLLVVPMQRVLKYHLLLKELLSHSAERPERQQLKEALEAMQDLAMYINEVKRDKETLRKISEFQSSIENLQVKLEEFGRPKIDGELKVRSIVNHTKQDRYLFLFDKVVIVCKRKGYSYELKEIIELLFHKMTDDPMNNKDVKKSHGKMWSYGFYLIHLQGKQGFQFFCKTEDMKRKWMEQFEMAMSNIKPDKANANHHSFQMYTFDKTTNCKACKMFLRGTFYQGYMCTKCGVGAHKECLEVIPPCKFTSPADLDASGAGPGPKMVAMQNYHGNPAPPGKPVLTFQTGDVLELLRGDPESPWWEGRLVQTRKSGYFPSSSVKPCPVDGRPPISRPPSREIDYTAYPWFAGNMERQQTDNLLKSHASGTYLIRERPAEAERFAISIKFNDEVKHIKVVEKDNWIHITEAKKFDSLLELVEYYQCHSLKESFKQLDTTLKYPYKSRERSASRASSRSPASCASYNFSFLSPQGLSFASQGPSAPFWSVFTPRVIGTAVARYNFAARDMRELSLREGDVVRIYSRIGGDQGWWKGETNGRIGWFPSTYVEEEGIQ [VAV2] | 0.0861 | 1.36 | -0.0231 | 48.7 | 48.9 | -0.269 |
| MERAGATSRGGQAPGFLLRLHTEGRAEAARVQEQDLRQWGLTGIHLRSYQLEGVNWLAQRFHCQNGCILGDEMGLGKTCQTIALFIYLAGRLNDEGPFLILCPLSVLSNWKEEMQRFAPGLSCVTYAGDKEERACLQQDLKQESRFHVLLTTYEICLKDASFLKSFPWSVLVVDEAHRLKNQSSLLHKTLSEFSVVFSLLLTGTPIQNSLQELYSLLSFVEPDLFSKEEVGDFIQRYQDIEKESESASELHKLLQPFLLRRVKAEVATELPKKTEVVIYHGMSALQKKYYKAILMKDLDAFENETAKKVKLQNILSQLRKCVDHPYLFDGVEPEPFEVGDHLTEASGKLHLLDKLLAFLYSGGHRVLLFSQMTQMLDILQDYMDYRGYSYERVDGSVRGEERHLAIKNFGQQPIFVFLLSTRAGGVGMNLTAADTVIFVDSDFNPQNDLQAAARAHRIGQNKSVKVIRLIGRDTVEEIVYRKAASKLQLTNMIIEGGHFTLGAQKPAADADLQLSEILKFGLDKLLASEGSTMDEIDLESILGETKDGQWVSDALPAAEGGSRDQEEGKNHMYLFEGKDYSKEPSKEDRKSFEQLVNLQKTLLEKASQEGRSLRNKGSVLIPGLVEGSTKRKRVLSPEELEDRQKKRQEAAAKRRRLIEEKKRQKEEAEHKKKMAWWESNNYQSFCLPSEESEPEDLENGEESSAELDYQDPDATSLKYVSGDVTHPQAGAEDALIVHCVDDSGHWGRGGLFTALEKRSAEPRKIYELAGKMKDLSLGGVLLFPVDDKESRNKGQDLLALIVAQHRDRSNVLSGIKMAALEEGLKKIFLAAKKKKASVHLPRIGHATKGFNWYGTERLIRKHLAARGIPTYIYYFPRSKSAVLHSQSSSSSSRQLVP [CHD1L] | 0.274 | 0.334 | -0.105 | 46.9 | 49 | -0.0342 |
| MERASERRTASALFAGFRALGLFSNDIPHVVRFSALKRRFYVTTCVGKSFHTYDVQKLSLVAVSNSVPQDICCMAADGRLVFAAYGNVFSAFARNKEIVHTFKGHKAEIHFLQPFGDHIISVDTDGILIIWHIYSEEEYLQLTFDKSVFKISAILHPSTYLNKILLGSEQGSLQLWNVKSNKLLYTFPGWKVGVTALQQAPAVDVVAIGLMSGQVIIHNIKFNETLMKFRQDWGPITSISFRTDGHPVMAAGSPCGHIGLWDLEDKKLINQMRNAHSTAIAGLTFLHREPLLVTNGADNALRIWIFDGPTGEGRLLRFRMGHSAPLTNIRYYGQNGQQILSASQDGTLQSFSTVHEKFNKSLGHGLINKKRVKRKGLQNTMSVRLPPITKFAAEEARESDWDGIIACHQGKLSCSTWNYQKSTIGAYFLKPKELKKDDITATAVDITSCGNFAVIGLSSGTVDVYNMQSGIHRGSFGKDQAHKGSVRGVAVDGLNQLTVTTGSEGLLKFWNFKNKILIHSVSLSSSPNIMLLHRDSGILGLALDDFSISVLDIETRKIVREFSGHQGQINDMAFSPDGRWLISAAMDCSIRTWDLPSGCLIDCFLLDSAPLNVSMSPTGDFLATSHVDHLGIYLWSNISLYSVVSLRPLPADYVPSIVMLPGTCQTQDVEVSEETVEPSDELIEYDSPEQLNEQLVTLSLLPESRWKNLLNLDVIKKKNKPKEPPKVPKSAPFFIPTIPGLVPRYAAPEQNNDPQQSKVVNLGVLAQKSDFCLKLEEGLVNNKYDTALNLLKESGPSGIETELRSLSPDCGGSIEVMQSFLKMIGMMLDRKRDFELAQAYLALFLKLHLKMLPSEPVLLEEITNLSSQVEENWTHLQSLFNQSMCILNYLKSALL [WDR36] | 0.383 | 0.754 | -1.46 | 50.5 | 50.8 | 0.613 |
| MERAVPLAVPLGQTEVFQALQRLHMTIFSQSVSPCGKFLAAGNNYGQIAIFSLSSALSSEAKEESKKPVVTFQAHDGPVYSMVSTDRHLLSAGDGEVKAWLWAEMLKKGCKELWRRQPPYRTSLEVPEINALLLVPKENSLILAGGDCQLHTMDLETGTFTRVLRGHTDYIHCLALRERSPEVLSGGEDGAVRLWDLRTAKEVQTIEVYKHEECSRPHNGRWIGCLATDSDWMVCGGGPALTLWHLRSSTPTTIFPIRAPQKHVTFYQDLILSAGQGRCVNQWQLSGELKAQVPGSSPGLLSLSLNQQPAAPECKVLTAAGNSCRVDVFTNLGYRAFSLSF [THOC6] | -0.465 | -0.675 | -0.108 | 51.8 | 51.2 | 0.108 |
| MERPPGLRPGAGGPWEMRERLGTGGFGNVCLYQHRELDLKIAIKSCRLELSTKNRERWCHEIQIMKKLNHANVVKACDVPEELNILIHDVPLLAMEYCSGGDLRKLLNKPENCCGLKESQILSLLSDIGSGIRYLHENKIIHRDLKPENIVLQDVGGKIIHKIIDLGYAKDVDQGSLCTSFVGTLQYLAPELFENKPYTATVDYWSFGTMVFECIAGYRPFLHHLQPFTWHEKIKKKDPKCIFACEEMSGEVRFSSHLPQPNSLCSLVVEPMENWLQLMLNWDPQQRGGPVDLTLKQPRCFVLMDHILNLKIVHILNMTSAKIISFLLPPDESLHSLQSRIERETGINTGSQELLSETGISLDPRKPASQCVLDGVRGCDSYMVYLFDKSKTVYEGPFASRSLSDCVNYIVQDSKIQLPIIQLRKVWAEAVHYVSGLKEDYSRLFQGQRAAMLSLLRYNANLTKMKNTLISASQQLKAKLEFFHKSIQLDLERYSEQMTYGISSEKMLKAWKEMEEKAIHYAEVGVIGYLEDQIMSLHAEIMELQKSPYGRRQGDLMESLEQRAIDLYKQLKHRPSDHSYSDSTEMVKIIVHTVQSQDRVLKELFGHLSKLLGCKQKIIDLLPKVEVALSNIKEADNTVMFMQGKRQKEIWHLLKIACTQSSARSLVGSSLEGAVTPQTSAWLPPTSAEHDHSLSCVVTPQDGETSAQMIEENLNCLGHLSTIIHEANEEQGNSMMNLDWSWLTE [CHUK] | 0.418 | 1.15 | 0.0423 | 48.7 | 49.1 | -0.139 |
